Experimental data as given in patent publication US20230381277A1, “HIGH AFFINITY IL-2 RECEPTOR AGONISTS AND IMMUNOSUPPRESSANTS TO ENHANCE IMMUNE TOLERANCE” (Selecta Biosciences, Inc., priority 2022, published 2023).

Test system: Ovalbumin-specific OTII T cells
Assay: Example 5: adoptive transfer of ovalbumin-specific OTII T cells, antigen-specific Treg induction
Assay type: in vivo
Conditions: mice with adoptively transferred OTII T cells; starting level ~3%
Experimental: However, expansion of antigen-specific Treg can be more desirable than expansion of total Treg. The ability of ImmTOR plus antigen combined with IL-2 mutein to induce and/or expand antigen-specific Treg was evaluated. Ovalbumin-specific OTII T cells were adoptively transferred into mice prior to treatment with ovalbumin and ImmTOR and/or IL-2 mutein.

B1: ovalbumin (protein, UniProt P01012 2-386, looked up)
Ovalbumin: GSIGAASMEFCFDVFKELKVHHANENIFYCPIAIMSALAMVYLGAKDSTRTQINKVVRFDKLPGFGDSIEAQCGTSVNVHSSLRDILNQITKPNDVYSFSLASRLYAEERYPILPEYLQCVKELYRGGLEPINFQTAADQARELINSWVESQTNGIIRNVLQPSSVDSQTAMVLVNAIVFKGLWEKAFKDEDTQAMPFRVTEQESKPVQMMYQIGLFRVASMASEKMKILELPFASGTMSMLVLLPDEVSGLEQLESIINFEKLTEWTSSNVMEERKIKVYLPRMKMEEKYNLTSVLMAMGITDVFSSSANLSGISSAESLKISQAVHAAHAEINEAGREVVGSAEAGVDAASVSEEFRADHPFLFCIKHIATNAVLFFGRCVSP
- percentage of Foxp3+ DTII cells: ~6%
